Earlier results as cited in article PMC6723671.

Target: CD150 (SLAM) ECD (Homo sapiens) (UniProt Q13291)

In the case of CD150 (SLAM) ECD (from UniProt Q13291), the Kd is given as > 200 µM.
